Values of other authors in article PMC7811009, “Oxytocin modulates local topography of human functional connectome in healthy men at rest” (Communications Biology, 2021).

Legend:
[1] = rhesus monkeys, cited from earlier work
Text: Our findings support our previous observations that increases in oxytocin in systemic circulation cannot fully account for the changes in rCBF observed after intranasal oxytocin[11] and lend support to the contribution of nose-to-brain pathways to the effects of intranasal oxytocin on brain function. However, they cannot highlight the precise mechanisms of transport underlying its functional effects. We believe that most evidence to date concurs on the idea that oxytocin, when administered intranasally, may diffuse from the olfactory and respiratory epithelia in the middle and upper poster ...

[2] = intravenous infusion, primates; cited from earlier work
Text: It is not yet clear which precise mechanisms mediate the effects of intravenous oxytocin on brain function. […] At least three mechanisms have been postulated. First, it is possible that the direct peripheral effects of oxytocin on oxytocin receptors expressed in vegetative territories, such as the heart, may be an indirect source of changes in the brain.

For “labelled synthetic oxytocin: labelled synthetic oxytocin given intravenously or intranasally to primates / rhesus monkeys in cited studies”, the Brain regions reached ([1]; administered intranasally) is listed as “reaches several brain regions (orbitofrontal cortex, striatum, thalamus and brainstem)”, the “Labelled oxytocin in brain regions (orbitofrontal cortex, striatum, thalamus and brainstem)” value ([1]; same doses administered intravenously) is listed as “No detectable amounts” and the “Synthetic oxytocin levels in the CSF” value [2] is listed as “increased synthetic oxytocin levels in the CSF”.
